From article PMC10104900 (The Journal of Clinical Investigation, 2023)

Tests used:
[1] = biological target: recombinant FL spike B.1.1.7 Alpha, stabilized by 2P mutations (SARS-CoV-2 B.1.1.7 Alpha, strain)
[2] = biological target: recombinant FL spike P.1 Gamma, stabilized by 2P mutations (SARS-CoV-2, P.1 Gamma, strain)
[3] = biological target: recombinant FL spike B.1.351 Beta, stabilized by 2P mutations (SARS-CoV-2, B.1.351 Beta, strain)
[4] = biological target: recombinant FL spike B.1.617.2 Delta, stabilized by 2P mutations (SARS-CoV-2, B.1.617.2 Delta, strain)
[5] = biological target: T1, recombinant FL spike WT-6P (SARS-CoV-2 WT (Wuhan-Hu-1), UniProt P0DTC2, stabilised, biotin (EZ-Link Sulfo-NHS-Biotin) in the BLI experiments); test: ELISA; conditions: both partners purified
[6] = biological target: T1, recombinant FL spike WT-6P; test: BLI; conditions: both partners purified

| Binder | binding result [1] | binding result [2] | binding result [3] | binding result [4] | binding result [5] | binding result [6] |
| --- | --- | --- | --- | --- | --- | --- |
| S626-161 (antibody, V domains shown) VH: QLQLQESGPGLVKPSEALSLTCTVSGGSISTSNYYWGWIRQPPGKGLEWIGSIYYRGGTHYNPSLKTRVTISVDTSKNQFSLKLSSVTAADTAVYYCARHTYFYDIVGAAVWEPFDIWGQGTMVTVSS VL: not shown | binds | binds | binds | binds |  |  |
| S451-1140 (antibody, V domains shown) VH: EVQLVESGGGLVPPGGSLRLSCAASGFIFSNYAMTWVRQAPGKGLEWVSAISGGGGSTDYADSVKGRFTISRDNSKNTLYLQMNSLRAEDTAVYYCAKDLFGSGWSLFDNWGQGTLVTVS VL: not shown | binds | binds | binds | binds |  |  |
| S728-1157 IgG (antibody, V domains shown, copies: 2 + 2) VH: EVQLVESGGGLVQPGGSLRLSCAASGLLVSRNYMNWVRQAPGKGLEWVSIIYSGGSTFYADSVEGRFTISRDESKNTLYLQMNSLRTDDTAVYYCARDLSDYGGIDCWGQGTLVTVSS VL: YELTQPLSVSMALGQTARISCGGDNVGSQNVHWYQQRPGQAPVLVIYRDSNRPSGIPERFSGSKSGNTATLTISRAQAGDEADYYCQVWDSSTVAFGGGTKLTVL |  |  |  |  | binds |  |
| S728-1157 Fab (Fab, V domains shown) VH: EVQLVESGGGLVQPGGSLRLSCAASGLLVSRNYMNWVRQAPGKGLEWVSIIYSGGSTFYADSVEGRFTISRDESKNTLYLQMNSLRTDDTAVYYCARDLSDYGGIDCWGQGTLVTVSS VL: YELTQPLSVSMALGQTARISCGGDNVGSQNVHWYQQRPGQAPVLVIYRDSNRPSGIPERFSGSKSGNTATLTISRAQAGDEADYYCQVWDSSTVAFGGGTKLTVL |  |  |  |  |  | binds |
